From patent US20230144436A1, “MUSCLE TARGETING COMPLEXES AND USES THEREOF FOR TREATING MYOTONIC DYSTROPHY” (Dyne Therapeutics, Inc., priority 2020, published 2023)

What was measured:
DMPK [1] = test: DMPK knockdown by anti-TfR1 antibody-oligonucleotide conjugates in NHP myotubes; type: cell-based, non-human primate; details: conjugate with control DMPK-ASO, 72 hours, concentration not stated (0.5, 5, 50 nM tested)
Procedure: (§1) The purified complexes were then tested for cellular internalization and inhibition of the target gene, DMPK. Non-human primate (NHP) or DM1 (donated by DM1 patients) cells were grown in 96-well plates and differentiated into myotubes for 7 days. Cells were then treated with escalating concentrations (0.5 nM, 5 nM, 50 nM) of each complex for 72 hours. Cells were harvested, RNA was isolated, and reverse transcription was performed to generate cDNA. qPCR was performed using TaqMan kits specific for Ppib (control) and DMPK on the QuantStudio 7. The relative amounts of remaining DMPK transcript in treated vs non-treated cells was were calculated and the results are shown in Table 14 and FIG. 20.
as §1, with “of” for “of the target gene,”, “in” for “in Table 14 and”, “23.” for “20.”

DMPK [2] = test: DMPK knockdown by anti-TfR1 antibody-oligonucleotide conjugates in DM1 patient myotubes; type: cell-based, human; details: for % knockdown of DMPK in cells from human DM1 patients using Antibody-DMPK ASO conjugate: DM1 patient myotubes, conjugate with control DMPK-ASO, 72 hours, concentration not stated (0.5, 5, 50 nM tested)
Procedure: as §1
as §1, with “of” for “of the target gene,”, “in” for “in Table 14 and”, “23.” for “20.”

hTfR1 = hTfR1 (Homo sapiens, UniProt P02786); test: Binding kinetics of anti-TfR1 antibodies on Carterra LSA, hTfR1; details: Carterra LSA at 25 C
Chain of hTfR1 (P02786 whole entry): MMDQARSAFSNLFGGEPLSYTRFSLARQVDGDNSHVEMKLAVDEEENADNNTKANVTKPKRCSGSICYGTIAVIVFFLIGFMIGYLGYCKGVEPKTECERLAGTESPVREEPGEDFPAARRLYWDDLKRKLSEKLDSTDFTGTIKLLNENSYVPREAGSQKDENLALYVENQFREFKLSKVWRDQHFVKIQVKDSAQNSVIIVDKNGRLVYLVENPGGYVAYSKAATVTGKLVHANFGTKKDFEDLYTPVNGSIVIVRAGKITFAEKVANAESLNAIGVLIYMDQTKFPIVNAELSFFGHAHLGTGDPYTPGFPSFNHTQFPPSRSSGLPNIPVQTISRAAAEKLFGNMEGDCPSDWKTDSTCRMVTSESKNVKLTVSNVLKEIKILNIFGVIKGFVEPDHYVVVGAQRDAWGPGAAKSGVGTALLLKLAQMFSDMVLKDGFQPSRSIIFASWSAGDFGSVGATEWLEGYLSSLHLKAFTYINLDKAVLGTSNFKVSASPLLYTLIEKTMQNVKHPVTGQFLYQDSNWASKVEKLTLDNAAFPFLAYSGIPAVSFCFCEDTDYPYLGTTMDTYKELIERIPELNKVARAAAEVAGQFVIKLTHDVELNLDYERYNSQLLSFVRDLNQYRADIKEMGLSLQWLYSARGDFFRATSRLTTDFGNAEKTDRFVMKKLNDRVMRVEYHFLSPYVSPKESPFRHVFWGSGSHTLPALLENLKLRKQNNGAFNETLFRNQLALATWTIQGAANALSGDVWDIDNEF
Procedure: Selected anti-TfR1 antibodies were tested for their binding affinity to human TfR1 for measurement of Ka (association rate constant), Kd (dissociation rate constant), and KD (affinity). […] The binding experiment was performed on Carterra LSA at 25 C. An anti-mouse IgG and anti-human IgG antibody “lawn” was prepared on a HC30M chip by amine coupling. 59 IgGs (58 mouse mAbs and 1 human mAb) were captured on the chip. Dilution series of hTfR1, cyTfR1, and hTfR2 were injected to the chip for binding (starting from 1000 nM, 1:3 dilution, 8 concentrations).
Binding data were referenced by subtracting the responses from a buffer analyte injection and globally fitting to a 1:1 Langmuir binding model for estimate of Ka (association rate constant), Kd (dissociation rate constant), and KD (affinity) using the Carterra™ Kinetics software. 5-6 concentrations were used for curve fitting.

| Molecule | % knockdown of DMPK in NHP cells using Antibody-DMPK ASO conjugate (DMPK [1]) [%] | % knockdown of DMPK in cells from human DM1 patients using Antibody-DMPK ASO conjugate (DMPK [2]) [%] | dissociation rate constant (koff) (hTfR1) [µM] | activity in delivering a payload (DMPK ASO) and achieving DMPK knockdown compared to the control antibody 15G11 (DMPK [2]; conjugates with control DMPK-ASO, in either cyno cells or human DM1 patient cells) |
| --- | --- | --- | --- | --- |
| 8-O17 (antibody, V domains shown) VH: QVQLKESGPGLVAPSQSLSITCTVSGFSLTNYGVHWVRQPPGKGLEWLVVIWNDGSATYNSALESRLSISKDNSKSQVFLKMNSLQTDDTAMYYCARHESSNPFAYWGQGTLVTVSA VL: DILLTQSPAILSVSPGERVSFSCRASQSIGTSIHWYQQRTNGSPRLLIKSASESIAGIPSRFSGSGSGTDFTLSINSVESEDIADYYCQQNNRWPYTFGGGTKLEIK | 26 | 41 | 91.2 | – |
| 10-H2 (antibody, V domains shown) VH: EVQLVESGGDLVKPGGSLKLSCAASGFTFSDYGMHWVRQGPEKGLEWVAYINSGSSTIYYADTVKGRFTISRDNAKNTLFLQMTSLRSEDTAMYYCARPGDYDNYAMDYWGQGTSVTVSS VL: DIVMTQSHKFLSTSVGDRVSITCKASQDVSVAVAWYQQKPGQSPKLLIYWAYTRHTGVPDRFTGSGSGTEYTLTISSVQAEDLALYYCQQHYNTPPWTFGGGTKLEIK | 2 | 16 | – | – |
| 4-C5 (antibody, V domains shown) VH: QVQLQQSGAELMKPGASVKISCKATGYTFSNYWIEWVKQRPGHGLEWIGEILPGSGSTNYNENFKGKATFTADTSSNTAYMQLSSLTSEDSAVYYCARRGAYGNFHYWGQGTTLTVSS VL: EIVLTQSPALMAASPGEKVTITCSVSSSISSSNLHWYQQKSETSPKPWIYGTSNLASGVPVRFSGSGSGTSYSLTISSMEAEDAATYYCQQWRSYPYTFGGGTKLEIK | −20 | 35 | – | – |
| 2-H19 (antibody, V domains shown) VH: EVQLQQSGAELVRSGASVKLSCTASGFNIKDYYMHWVKQRPEQGLEWIGWIDPESGDTEYAPKFQGRATMTADTSSNTAYMQLSSLTSEDTAVYYCYGHDYRVDCWGQGTSVTVSS VL: DVVMTQTPLSLPVSLGDQASISCRSSQSLVHSNGNTYLHWYLQKPGQSPKLLIYKVSNRFSGVPDRFSGSGSGTDFTLKISRVEAEDLGVYFCSQSTHIPWTFGGGTKLEIK | 39 | 24 | 456 | – |
| 4-J22 (antibody, V domains shown) VH: EVQLQQSGAELVRSGASVKLSCTASGFNIKDYYIHWVKQRPEQGLEWIGWIDPENADTEYAPKFQGKATMTPDTSSNTAYLQLSSLTSEDTAVYYCYAWDYSMDYWGQGTSVTVSS VL: DVVMTQTPLSLSVSLGDQASISCRSSQSLVHSNGNTYLHWYLQKPGQSPKLLIYKVSNRFSGVPDRFSGSGSGTDFILKISRVEAEDLGVYFCSQNTHVPYTFGGGTRLEIK | 7 | 57 | – | – |
| 3-M12 (antibody, V domains shown) VH: DVQLQESGPGLVKPSQSLSLTCSVTGYSITSGYYWNWIRQFPGNKLEWMGYITFDGANNYNPSLKNRISITRDTSKNQFFLKLTSVTTEDTATYYCTRSSYDYDVLDYWGQGTTLTVSS VL: DIQMTQTTSSLSASLGDRVTISCRASQDISNFLNWYQQRPDGTVKLLIYYTSRLHSGVPSRFSGSGSGTDFSLTVSNLEQEDIATYFCQQGHTLPYTFGGGTKLEIK | 77 | 52 | 127 | superior activity |
| 9-K23 (antibody, V domains shown) VH: QVTLKESGPGMLQPSQTLSLTCSFSGFSLNTYDVGVGWIRQPSGKGLEWLANIWWNDDKYYNSALKSRLTISKDTSNNQVFLKISSVDTADTATYYCTLYSYDGGFAYWGQGTLVTVSA VL: QIVLTQSPAIMSASLGERVTMTCTASSSVSSSYLHWYQQKPGSSPKLWIYSTSNLASGVPARFSGSGSGTSYSLTISSMEAEDAATYYCHQYHRSPYTFGGGTKLEIK | 47 | −4 | 21.7 | – |
